# Assay results taken from patent US20140322220A1 (Bayer, published 2014).
# Residue numbers refer to the chain shown, from its start. Numbered stars: 1 amine (or outer) side, 2 acyl side, 3 side chain; on linkers, the order of the positions; unused ones are H or OH. Square brackets hold non-standard residues; d marks the D form. Ends that are not written are not given here. * marks the point of attachment. Biotin = O=C1N[C@H]2[C@H](CS[C@H]2CCCCC(=O)*)N1; Ttds = O=C(CCC(=O)[*:2])NCCCOCCOCCOCCCN[*:1]
# T1: RPSFSLVEDTTLEPEG-Ttds-Lys(Biotin) (human)
# T1 construct: Synthesized by JPT Peptide Technology
# T1 peptide: RPSFSLVEDTTLEPEG[Ttds]K(Biotin)
# T2: hFGFR1β-Fc (IIIc) (human, UniProt P11362-14 22-285, limits assumed, biotinylated with biotin-LC-NHS)
# T2 construct: Bought, R&D Systems 661-FR
# T2 sequence (looked up): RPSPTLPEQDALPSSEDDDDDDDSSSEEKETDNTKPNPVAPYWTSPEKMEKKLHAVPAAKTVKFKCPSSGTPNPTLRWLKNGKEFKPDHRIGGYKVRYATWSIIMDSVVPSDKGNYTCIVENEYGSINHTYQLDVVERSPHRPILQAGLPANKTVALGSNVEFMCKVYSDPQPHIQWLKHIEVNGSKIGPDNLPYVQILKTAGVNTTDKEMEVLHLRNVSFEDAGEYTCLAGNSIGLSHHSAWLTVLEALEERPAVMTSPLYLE
# T3: hFGFR3-Fc (IIIb) (human, UniProt P22607-2 23-377, biotinylated with biotin-LC-NHS)
# T3 construct: Bought, R&D Systems 1264-FR
# T3 sequence (looked up): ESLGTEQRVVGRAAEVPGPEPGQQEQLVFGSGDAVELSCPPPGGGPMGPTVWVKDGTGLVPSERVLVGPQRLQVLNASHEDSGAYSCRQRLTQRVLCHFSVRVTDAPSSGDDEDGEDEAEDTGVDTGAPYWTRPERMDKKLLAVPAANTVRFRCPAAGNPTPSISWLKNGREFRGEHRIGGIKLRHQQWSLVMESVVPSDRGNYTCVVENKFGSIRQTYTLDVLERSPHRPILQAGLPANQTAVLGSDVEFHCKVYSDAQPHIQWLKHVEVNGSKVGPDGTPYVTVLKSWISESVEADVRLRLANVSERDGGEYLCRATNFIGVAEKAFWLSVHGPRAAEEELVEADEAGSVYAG
# T4: hFGFR4-Fc (human, UniProt P22455 22-369, biotinylated with biotin-LC-NHS)
# T4 construct: Bought, R&D Systems, printed Cat. No. 685-MF
# T4 sequence (looked up): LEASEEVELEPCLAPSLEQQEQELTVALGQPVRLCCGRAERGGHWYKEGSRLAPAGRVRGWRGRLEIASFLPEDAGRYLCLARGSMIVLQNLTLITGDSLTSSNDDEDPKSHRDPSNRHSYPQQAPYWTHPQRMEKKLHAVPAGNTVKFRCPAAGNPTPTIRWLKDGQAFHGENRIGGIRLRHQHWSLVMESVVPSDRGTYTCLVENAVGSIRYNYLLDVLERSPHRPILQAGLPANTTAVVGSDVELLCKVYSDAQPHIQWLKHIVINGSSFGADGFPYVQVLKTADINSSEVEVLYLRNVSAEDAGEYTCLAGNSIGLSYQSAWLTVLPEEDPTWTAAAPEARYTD
# T5: hFGFR2α-Fc (IIIb) (human, UniProt P21802 22-377, biotinylated with biotin-LC-NHS)
# T5 construct: Bought, R&D Systems 663-FR, soluble Fc fusion
# T5 chain: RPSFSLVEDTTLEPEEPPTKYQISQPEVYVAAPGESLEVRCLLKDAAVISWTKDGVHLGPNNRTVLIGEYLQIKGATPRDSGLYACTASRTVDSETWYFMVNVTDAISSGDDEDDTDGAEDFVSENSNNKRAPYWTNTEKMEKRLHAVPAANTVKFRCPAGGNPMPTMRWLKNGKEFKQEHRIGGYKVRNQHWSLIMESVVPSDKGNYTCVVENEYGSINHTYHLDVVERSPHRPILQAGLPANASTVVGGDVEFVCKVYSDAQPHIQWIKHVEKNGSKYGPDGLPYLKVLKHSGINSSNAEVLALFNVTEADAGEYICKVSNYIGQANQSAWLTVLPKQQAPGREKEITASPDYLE
# T6: hFGFR2β-Fc (IIIb) (human, UniProt P21802 22-377, biotinylated with biotin-LC-NHS)
# T6 construct: also called FGFR2-2β Fc (IIIb)
# T6 chain: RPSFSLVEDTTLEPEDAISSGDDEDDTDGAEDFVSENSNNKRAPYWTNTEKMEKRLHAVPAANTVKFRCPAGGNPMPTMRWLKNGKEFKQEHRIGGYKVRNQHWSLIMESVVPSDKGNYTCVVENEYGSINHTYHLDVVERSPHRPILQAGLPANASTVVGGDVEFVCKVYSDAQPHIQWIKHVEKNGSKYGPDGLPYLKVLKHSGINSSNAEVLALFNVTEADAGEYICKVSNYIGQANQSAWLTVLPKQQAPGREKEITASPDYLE
# B1: TPP-1398 (antibody, human IgG1, lambda, V domains shown)
# VH: EVQLLESGGGLVQPGGSLRLSCAASGFTFSSYAMSWVRQAPGKGLEWVSAISRSGGSTYYADSVKGRFTISRDNSKNTLYLQMNSLRAEDTAVYYCARVRYIWNEGDWFDPWGQGTLVTVSS
# VL: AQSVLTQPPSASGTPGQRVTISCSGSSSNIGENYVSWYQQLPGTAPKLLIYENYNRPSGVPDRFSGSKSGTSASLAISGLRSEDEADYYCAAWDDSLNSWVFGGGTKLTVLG
# notes: Matured variant of M048-D01
# B2: TPP-1399 (antibody, human IgG1, lambda, V domains shown)
# VH: B1 VH with R53K, Y59F, I102K, N104G
# VL: AQSVLTQPPSASGTPGQRVTISCSGSSSNIGENYVSWYQQLPGTAPKLLIYENYKRPSGVPDRFSGSKSGTSASLAISGLRSEDEADYYCAAWDDSGNSWVFGGGTKLTVLG
# notes: Matured variant of M048-D01
# B3: TPP-1402 (antibody, human IgG1, lambda, V domains shown)
# VH: B1 VH with R53K, Y59F, E105H
# VL: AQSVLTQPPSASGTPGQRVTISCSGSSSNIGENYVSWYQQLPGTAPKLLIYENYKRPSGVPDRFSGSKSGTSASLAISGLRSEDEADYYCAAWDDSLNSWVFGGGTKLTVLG
# notes: Matured variant of M048-D01
# B4: TPP-1400 (antibody, human IgG1, lambda, V domains shown)
# VH: B1 VH
# VL: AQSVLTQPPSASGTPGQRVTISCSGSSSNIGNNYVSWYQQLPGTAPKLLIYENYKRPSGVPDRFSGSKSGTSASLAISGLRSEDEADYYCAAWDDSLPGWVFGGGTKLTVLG
# notes: Matured variant of M048-D01
# B5: TPP-1401 (antibody, human IgG1, lambda, V domains shown)
# VH: B1 VH with R53K, Y59F
# VL: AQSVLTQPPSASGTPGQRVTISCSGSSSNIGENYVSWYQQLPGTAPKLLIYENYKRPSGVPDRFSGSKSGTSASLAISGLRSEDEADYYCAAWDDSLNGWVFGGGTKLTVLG
# notes: Matured variant of M048-D01
# B6: M017-B02 (soluble Fab) (Fab, V domains shown)
# VH: EVQLLESGGGLVQPGGSLRLSCAASGFTFRTSGMHWVRQAPGKGLEWVAVISYDGSNKYYADSVKGRFTISRDNSKNTLYLQMNSLRAEDTAVYYCARESPGYDFEYWGQGTLVTVSS
# VL: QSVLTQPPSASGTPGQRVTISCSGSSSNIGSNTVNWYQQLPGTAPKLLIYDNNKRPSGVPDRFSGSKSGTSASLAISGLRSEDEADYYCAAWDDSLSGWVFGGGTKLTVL
# notes: Soluble Fab from E. coli, purified through its His-tag
# B7: M054-D03 (soluble Fab) (Fab, V domains shown)
# VH: B6 VH with R30S, T31N, S32Y, R98K, S100T, P101N, G102D, Y103V, D104P, E106D
# VL: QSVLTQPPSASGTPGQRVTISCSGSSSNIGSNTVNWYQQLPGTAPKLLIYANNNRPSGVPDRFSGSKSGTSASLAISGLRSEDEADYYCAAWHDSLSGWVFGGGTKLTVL
# notes: as for B6
# B8: M047-D08 (soluble Fab) (Fab, V domains shown)
# VH: B6 VH
# VL: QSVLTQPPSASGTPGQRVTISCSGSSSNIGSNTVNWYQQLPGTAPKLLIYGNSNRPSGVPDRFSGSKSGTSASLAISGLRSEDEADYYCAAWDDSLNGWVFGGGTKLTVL
# notes: as for B6
# Target: T1, RPSFSLVEDTTLEPEG-Ttds-Lys(Biotin)
# Test: peptide binding ELISA, antibody captured by anti-human IgG Fc, biotinylated peptide titrated
# From the text: (§1) Two different types of ELISA were used to determine the binding improvement of mutated variants: a) Peptide Binding ELISA: a synthetic peptide comprising the amino acid sequence of the epitope linked C-terminally to a biotinylated lysine […]-Ttds-Lys(Biotin) (peptide sequence derived from SEQ ID NO:63, synthesized by JPT Peptide Technology GmbH, Berlin, Germany), and b) Recombinant Protein Binding ELISA: recombinant human FGFR2 (DNA sequence of human FGFR2 (NP 000132.3) Met 1-Glu 377, fused with a polyhistidine tag at the C-terminus; #10824-1-1081-1, Sin θ Biological Inc., Beijing, China).
# (§2) Briefly, in both ELISA formats MTP plates (384 well Maxisorp, Nunc) were coated with 20 μl, anti-human IgG Fc specific (#12136; sigma) at 2.2 μg/ml for 2.5 h at 37° C. in coating buffer (#121125 Candor Bioscience GmbH). […] Anti-FGFR2 variants were immobilized in concentrations of 0.035 μg/ml (peptide based assay) or 0.2 μg/ml (recombinant human FGFR2 protein based assay) in 10% Smart Block in PBST depending on the format and variants to be analyzed by incubation of 20 μl for one hour at 20-22° C. After one washing step using 50 μl PBST, 20 μl quadruplets of the antigen dilution series in 10% SmartBlock in PBST with a maximum concentration of 100 nM were added and incubated for 1 h at 20-22° C. and the washing step was repeated 3 times. For the detection of the biotinylated epitope peptide 20 μl of streptavidine/POD conjugate (# S5512, Sigma) in a 1:1000 dilution in 10% SmartBlock in PBST were applied for one hour at 20-22° C. For the detection of the recombinant FGFR2 protein 20 μl of anti-His/HRP conjugate (#71840, novagen) in a 1:10000 dilution in 10% SmartBlock in PBST were applied for one hour at 20-22° C. After 3 washing steps 20 μl of 10 μM amplex red substrate (# A12222, Invitrogen) in 50 mM Sodium hydrogen phosphate, pH 7.6, were added and the fluorescence signal was detected using a common fluorescence reader, e.g. Tecan M1000. EC50 values were evaluated by fitting the data (Sigmoida) dose-response, variable slope, bottom set to background; GraphPad Prism software).
row,EC50 [nM],Binder
1,0.005,B1
2,0.006,B2
3,0.007,B3
4,0.009,B4
5,0.006,B5

# Target: T7, recombinant human FGFR2 (Met 1-Glu 377) with C-terminal polyhistidine tag (human, UniProt P21802 22-377)
# T7 construct: The range is that of the expressed DNA and begins at Met 1; also called His-tagged FGFR2; recombinant human FGFR2-IIIc molecule
# Test: protein binding ELISA; against TPP-1403
# From the text: as §1, §2
row,fold EC50 reduction [fold],Binder
1,39,B1
2,39,B2
3,37,B3
4,17,B4
5,39,B5

# Target: T2, hFGFR1β-Fc (IIIc)
# Test: ELISA on coated biotinylated Fc fusion
# Procedure: (§3) For the ELISA 96-well plates pre-coated with streptavidin (Pierce, 15500) were coated over night at 4° C. with 1 μg/ml biotinylated protein. Wells coated with biotinylated TRAIL-Fc served as a reference. The next day plates were washed 3 times with PBST, treated with blocking reagent, and washed again 3 times with PBST. 100 μl of purified Fabs (1 μg/ml) were added and incubated for 1 h at r.t. After washing 3 times with PBST, an anti-hIgG (Fab-specific) coupled to HRP (1:2500 diluted; Sigma; A 0293) was added and incubated for 1 h at Lt. Color reaction was developed by addition of 50 μl TMB (Invitrogen, 2023) and stopped after 5-15 min by adding 50 μl H₂SO₄ (Merck, 1120801000). Colorimetric reaction was recorded at […] in a plate reader (Tecan). Wells containing TRAIL-Fc were used as background values and the signal to background ratios were calculated as summarized in Table 4.
row,binding result,Binder
1,no binding,B6
2,no binding,B7
3,no binding,B8

# Target: T3, hFGFR3-Fc (IIIb)
# Test: ELISA on coated biotinylated Fc fusion
# Procedure: as §3
row,binding result,Binder
1,no binding,B6
2,no binding,B7
3,no binding,B8

# Target: T4, hFGFR4-Fc
# Test: ELISA on coated biotinylated Fc fusion
# Procedure: as §3
row,binding result,Binder
1,no binding,B6
2,no binding,B7
3,no binding,B8

# Target: T1, RPSFSLVEDTTLEPEG-Ttds-Lys(Biotin)
# Test: peptide binding ELISA; against TPP-1403
# From the text: as §1, §2
row,fold EC50 reduction [fold],Binder
1,> 2000,B1
2,> 1500,B2
3,> 1500,B3
4,> 1100,B4
5,> 1700,B5

# Target: T5, hFGFR2α-Fc (IIIb)
# Test: ELISA, 1 ug/ml Fab on coated antigen; grade of signal to background (+ 2-3, ++ 3-5, +++ >5)
# Procedure: as §3
row,ELISA signal to background ratio [ratio],Binder
1,> 5,B6
2,3 to 5,B7
3,> 5,B8

# Target: T8, mFGFR2β-Fc (IIIb) (murine, UniProt P21803-2 22-263, limits assumed, biotinylated with biotin-LC-NHS)
# T8 construct: Bought, R&D Systems 708-MF
# T8 sequence (P21803 other isoform, or with tags, fused parts or gaps limits assumed): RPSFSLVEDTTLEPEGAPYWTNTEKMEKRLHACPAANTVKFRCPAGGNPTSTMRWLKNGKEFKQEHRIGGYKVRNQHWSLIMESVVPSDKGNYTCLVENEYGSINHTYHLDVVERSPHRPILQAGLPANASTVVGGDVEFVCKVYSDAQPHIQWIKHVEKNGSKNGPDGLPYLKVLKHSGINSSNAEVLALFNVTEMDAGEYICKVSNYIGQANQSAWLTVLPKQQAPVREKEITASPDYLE
# Test: as above
# Procedure: as §3
row,ELISA signal to background ratio [ratio],Binder
1,> 5,B6
2,3 to 5,B7
3,> 5,B8

# Target: T6, hFGFR2β-Fc (IIIb)
# Test: as above
# Procedure: as §3
row,ELISA signal to background ratio [ratio],Binder
1,> 5,B6
2,2 to 3,B7
3,> 5,B8

# Target: T7, recombinant human FGFR2 (Met 1-Glu 377) …
# Test: protein binding ELISA, antibody captured by anti-human IgG Fc, FGFR2-His titrated
# From the text: as §1, §2
row,EC50 [nM],Binder
1,0.2,B1
2,0.21,B2
3,0.22,B3
4,0.48,B4
5,0.2,B5
